The target of the data set is Lhr (archaeal Lhr, Mth1802) (Methanothermobacter thermautotrophicus …, UniProt O27830 1-862). Briefly: EMSA; no ATP; 100 nM Lhr, 10 nM DNA; EMSA: buffer HB (20 mM Tris-HCl pH 7.5, 2 mM DTT, 100 µg/ml BSA, 7% glycerol), room temperature, 10 nM DNA, 100 nM Lhr, +/- ATP and MgCl2, 5% acrylamide TBE gel; smFRET: 1 µM Lhr, RT or 45°C. Particulars: protein: recombinant; tags: none stated (pET22b via NdeI/EcoRI, pEB352; no tag purification); label: ATTO 532 (green); partial fork 1:3 parental 24 bp, 3:4 leading arm 25 bp; S18[1-26] single-stranded; 1 nt 5' overhang on S20. A general note: In EMSA bound probe runs differently from free probe, usually more slowly.
Lhr (archaeal Lhr, Mth1802), sequence (O27830 whole entry): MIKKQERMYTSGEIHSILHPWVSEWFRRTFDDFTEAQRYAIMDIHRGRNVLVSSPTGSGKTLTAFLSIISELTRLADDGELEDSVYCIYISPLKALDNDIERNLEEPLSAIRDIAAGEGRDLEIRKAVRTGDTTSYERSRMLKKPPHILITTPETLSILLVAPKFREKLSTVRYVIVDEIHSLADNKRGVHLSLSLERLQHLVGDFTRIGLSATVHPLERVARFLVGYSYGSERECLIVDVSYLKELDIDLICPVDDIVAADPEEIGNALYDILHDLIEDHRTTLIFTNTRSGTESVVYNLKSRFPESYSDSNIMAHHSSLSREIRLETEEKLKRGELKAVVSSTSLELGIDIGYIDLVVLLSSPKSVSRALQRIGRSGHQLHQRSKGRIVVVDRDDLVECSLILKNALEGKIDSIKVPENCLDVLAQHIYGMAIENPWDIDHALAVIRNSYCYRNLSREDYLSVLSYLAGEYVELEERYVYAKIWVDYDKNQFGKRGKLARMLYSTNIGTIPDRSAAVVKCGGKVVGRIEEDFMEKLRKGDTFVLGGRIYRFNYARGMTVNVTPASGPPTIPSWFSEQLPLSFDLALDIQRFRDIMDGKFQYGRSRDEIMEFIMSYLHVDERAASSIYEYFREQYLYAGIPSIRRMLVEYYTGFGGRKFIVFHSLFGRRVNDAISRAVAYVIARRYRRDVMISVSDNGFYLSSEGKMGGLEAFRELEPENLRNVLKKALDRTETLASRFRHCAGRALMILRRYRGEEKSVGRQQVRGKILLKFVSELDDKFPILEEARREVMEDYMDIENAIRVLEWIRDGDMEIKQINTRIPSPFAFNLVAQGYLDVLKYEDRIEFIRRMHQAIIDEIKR

B1: partial fork-2 lacking the red lagging strand (dsDNA)
DNA 1: ATCGATAGTCTCTAGACAGTATGTCCTAGCAAGCCAGAATTCGGCAGCGT
DNA 2: GACGCTGCCGAATTCTGGCTTGCTATGTAAATCTTTGCCCACGTTGACCC
DNA 3: GGGTCAACGTGGGCAAAGATTTACA
modifications: 5' biotin on S18
In the case of B1, the binding result was “binds”.

The values above are taken from PMC7437997, “Mechanistic insights into Lhr helicase function in DNA repair”.
